Here are results for 1 molecule from patent US6322962A, “Sterol-regulated Site-1 protease and assays of modulators thereof” (Board of Regents, The University of Texas System, priority 1999, dated 2001).

This assay has as its system PLAP-BP2(513-1141) in SRD-12B cells. Description: Secreted alkaline phosphatase assay in SRD-12B cells transfected with wild-type or mutant S1P cDNAs. The conditions noted are these: Myc-tagged S1P cDNA. It is filed as cell-based, hamster.

B1: 5411A: control S1P mutant, serine near catalytic triad mutated to alanine (protein, UniProt Q9Z2A8 187-1052, looked up, variant S411A)
Membrane-bound transcription …: RAIPRQVAQTLQADVLWQMGYTGANVRVAVFDTGLSEKHPHFKNVKERTNWTNERTLDDGLGHGTFVAGVIASMRECQGFAPDAELHIFRVFTNNQVSYTSWFLDAFNYAILKKIDVLNLSIGGPDFMDHPFVDKVWELTANNVIMVSAIGNDGPLYGTLNNPADQMDVIGVGGIDFEDNIARFSSRGMTTWELPGGYGRVKPDIVTYGAGVRGSGVKGGCRALAGTSVASPVVAGAVTLLVSTVQKRELVNPASVKQALIASARRLPGVNMFEQGHGKLDLLRAYQILSSYKPQASLSPSYIDLTECPYMWPYCSQPIYYGGMPTIVNVTILNGMGVTGRIVDKPEWRPYLPQNGDNIEVAFSYSSVLWPWSGYLAISISVTKKAASWEGIAQGHIMITVASPAETEAKNGAEHTSTVKLPIKVKIIPTPPRSKRVLWDQYHNLRYPPGYFPRDNLRMKNDPLDWNGDHVHTNFRDMYQHLRSMGYFVEVLGAPFTCFDATQYGTLLMVDSEEEYFPEEIAKLRRDVDNGLSLVIFSDWYNTSVMRKVKFYDENTRQWWMPDTGGANIPALNELLSVWNMGFSDGLYEGEFALANHDMYYASGCSIAKFPEDGVVITQTFKDQGLEVLKQETAVVENVPILGLYQIPAEGGGRIVLYGDSNCLDDSHRQKDCFWLLDALLQYTSYGVTPPSLSHSGNRQRPPSGAGLAPPERMEGNHLHRYSKVLEAHLGDPKPRPLPACPHLSWAKPQPLNETAPSNLWKHQKLLSIDLDKVVLPNFRSNRPQVRPLSPGESGAWDIPGGIMPGRYNQEVGQTIPVFAFLGAMVALAFFVVQISKAKSRPKRRRPRAKRPQLTQQTHPPRTPSV
With B1, the “PLAP activity relative to wild-type levels” value is reported as 50-70 % of wild-type levels.
